Here are results for 22 molecules from patent publication US8030025B2, “Antibodies directed to angiopoietin-1 and angiopoietin-2 and uses thereof” (Amgen Inc., dated 2011).

Experiment [1] concerns the target biotinylated human angiopoietin 1 (human, UniProt Q15389, biotin). Put plainly: HTRF neutralization; biotin-hAng1 vs huTie-2-Fc-APC. On the technique in general: Time-resolved FRET reads energy transfer from a long-lived donor to a nearby acceptor.
In experiment [2] the target is biotinylated human angiopoietin 2 (human, UniProt O15123, biotin). Put plainly: HTRF neutralization; biotin-hAng2 vs huTie-2-Fc-APC.

B1: H5L7 (antibody, V domains shown)
VH: EVQLVQSGGGVVQPGRSLRLSCAASGFTFSSYGMHWVRQAPGKGLEWVSYISSSGSTIYYADSVKGRFTISRDNAKNSLYLQMNSLRAEDTAVYYCARDLLDYDIWTGYGYWGQGTLVTVSS
VL: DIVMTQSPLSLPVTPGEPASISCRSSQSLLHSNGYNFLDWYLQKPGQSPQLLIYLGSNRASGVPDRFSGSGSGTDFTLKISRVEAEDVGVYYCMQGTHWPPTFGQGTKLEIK
By IC50 is commonly meant the concentration that inhibits the measured activity by half. A higher IC50 goes with weaker potency. Usually IC90 stands for the concentration needed for an effect of 90%. A higher IC90 goes with weaker potency. As to B1, in experiment [1], the IC50 stood at 0.07 nM and it took 0.42 nM to reach the 90% level (IC90). In addition, in experiment [2], the IC50 is 0.07 nM and the IC90 was 0.23 nM.

B2: H5L12 (antibody, V domains shown)
VH: EVQLVQSGGGVVQPGRSLRLSCAASGFTFSSYGMHWVRQAPGKGLEWVSYISSSGSTIYYADSVKGRFTISRDNAKNSLYLQMNSLRAEDTAVYYCARDLLDYDIWTGYGYWGQGTLVTVSS
VL: not shown
As for B2, in experiment [2], the IC50 stood at 0.07 nM.

B3: H6L7 (antibody, V domains shown)
VH: EVQLVQSGGGVVQPGRSLRLSCAASGFTFSSYGMHWVRQAPGKGLEWVSYISSSGSTIYYADSVKGRFTISRDNAKNSLYLQMNSLRAEDTAVYYCARDLLDYDIYTGYGYWGQGTLVTVSS
VL: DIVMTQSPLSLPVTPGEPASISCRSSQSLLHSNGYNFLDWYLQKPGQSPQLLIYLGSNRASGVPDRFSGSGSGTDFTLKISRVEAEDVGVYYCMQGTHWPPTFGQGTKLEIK
In experiment [1], B3 came in with an IC50 of 0.06 nM and an IC90 of 0.49 nM. In experiment [2], this molecule displayed an IC50 of 0.06 nM and a concentration for an effect of 90% (IC90) of 0.19 nM.

B4: H4L11 (antibody, V domains shown)
VH: EVQLVQSGGGVVQPGRSLRLSCAASGFTFSSYGMHWVRQAPGKGLEWVSYISSSGSTIYYADSVKGRFTISRDNAKNSLYLQMNSLRAEDTAVYYCARDLLDYDLLTGYGYWGQGTLVTVSS
VL: not shown
Regarding B4, the values for the IC50 in experiment [1] and in experiment [2] were 7.3 nM and 0.05 nM, respectively. The IC90 in experiment [1] stood at 107 nM; in experiment [2], 0.17 nM.

B5: H4L4 (antibody, V domains shown)
VH: EVQLVQSGGGVVQPGRSLRLSCAASGFTFSSYGMHWVRQAPGKGLEWVSYISSSGSTIYYADSVKGRFTISRDNAKNSLYLQMNSLRAEDTAVYYCARDLLDYDLLTGYGYWGQGTLVTVSS
VL: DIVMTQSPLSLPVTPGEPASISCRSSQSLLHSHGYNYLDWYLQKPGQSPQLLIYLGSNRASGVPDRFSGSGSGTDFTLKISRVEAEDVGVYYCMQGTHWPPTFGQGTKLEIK
Regarding B5, in experiment [1], half-maximal inhibition (IC50) was put at 0.87 nM and the IC90 stood at 8.2 nM. In addition, in experiment [2], half-maximal inhibition (IC50) required 0.06 nM and it took 0.16 nM to reach the 90% level (IC90).

B6: H10L7 (antibody, V domains shown)
VH: EVQLVQSGGGVVQPGRSLRLSCAASGFTFSSYGMHWVRQAPGKGLEWVSYISSSGSTIYYADSVKGRFTISRDNAKNSLYLQMNSLRAEDTAVYYCARDLLDYDILTGYGLWGQGTLVTVSS
VL: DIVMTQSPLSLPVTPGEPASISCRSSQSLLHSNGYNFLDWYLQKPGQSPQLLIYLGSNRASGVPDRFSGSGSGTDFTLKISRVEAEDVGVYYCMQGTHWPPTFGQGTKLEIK
With B6, the IC50 in experiment [1] amounted to 0.15 nM; in experiment [2], 0.06 nM. The IC90 in experiment [1] was found to be 2.2 nM; in experiment [2], 0.19 nM.

B7: H6L8 (antibody, V domains shown)
VH: EVQLVQSGGGVVQPGRSLRLSCAASGFTFSSYGMHWVRQAPGKGLEWVSYISSSGSTIYYADSVKGRFTISRDNAKNSLYLQMNSLRAEDTAVYYCARDLLDYDIYTGYGYWGQGTLVTVSS
VL: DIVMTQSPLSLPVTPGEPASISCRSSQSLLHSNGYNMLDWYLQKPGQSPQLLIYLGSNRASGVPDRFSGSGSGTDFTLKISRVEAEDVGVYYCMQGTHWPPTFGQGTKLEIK
In experiment [1], B7 showed an IC50 of 0.57 nM and an IC90 of 7.7 nM. In experiment [2], the IC50 came to 0.05 nM and the 90% effect level (IC90) was put at 0.19 nM.

B8: H4L7 (antibody, V domains shown)
VH: EVQLVQSGGGVVQPGRSLRLSCAASGFTFSSYGMHWVRQAPGKGLEWVSYISSSGSTIYYADSVKGRFTISRDNAKNSLYLQMNSLRAEDTAVYYCARDLLDYDLLTGYGYWGQGTLVTVSS
VL: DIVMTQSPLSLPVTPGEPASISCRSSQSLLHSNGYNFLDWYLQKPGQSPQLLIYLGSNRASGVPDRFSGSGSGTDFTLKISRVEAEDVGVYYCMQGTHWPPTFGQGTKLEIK
In experiment [1], B8 showed an IC50 of 0.23 nM and an IC90 of 2.8 nM. In experiment [2], this molecule returned an IC50 of 0.06 nM and an IC90 of 0.22 nM.

B9: H5L6 (antibody, V domains shown)
VH: EVQLVQSGGGVVQPGRSLRLSCAASGFTFSSYGMHWVRQAPGKGLEWVSYISSSGSTIYYADSVKGRFTISRDNAKNSLYLQMNSLRAEDTAVYYCARDLLDYDIWTGYGYWGQGTLVTVSS
VL: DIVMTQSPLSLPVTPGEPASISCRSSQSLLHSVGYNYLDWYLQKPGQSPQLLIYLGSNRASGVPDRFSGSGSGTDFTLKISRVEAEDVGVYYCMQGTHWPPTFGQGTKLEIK
Consider B9, for which, in experiment [1], the midpoint of inhibition, the IC50, lay at 0.32 nM and the IC90 was found to be 3.6 nM. Besides, in experiment [2], inhibition was half-maximal at 0.07 nM (IC50) and the IC90 was 0.23 nM.

B10: H4L2 (antibody, V domains shown)
VH: EVQLVQSGGGVVQPGRSLRLSCAASGFTFSSYGMHWVRQAPGKGLEWVSYISSSGSTIYYADSVKGRFTISRDNAKNSLYLQMNSLRAEDTAVYYCARDLLDYDLLTGYGYWGQGTLVTVSS
VL: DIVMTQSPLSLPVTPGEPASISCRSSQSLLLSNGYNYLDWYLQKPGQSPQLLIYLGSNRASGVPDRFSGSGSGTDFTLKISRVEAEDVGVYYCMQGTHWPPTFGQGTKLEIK
In experiment [1], B10 gave an IC50 of 0.66 nM and an IC90 of 6.8 nM. In addition, in experiment [2], the IC50 was determined as 0.06 nM and it took 0.19 nM to reach the 90% level (IC90).

B11: H4L12 (antibody, V domains shown)
VH: EVQLVQSGGGVVQPGRSLRLSCAASGFTFSSYGMHWVRQAPGKGLEWVSYISSSGSTIYYADSVKGRFTISRDNAKNSLYLQMNSLRAEDTAVYYCARDLLDYDLLTGYGYWGQGTLVTVSS
VL: not shown
For the molecule B11, the half-maximal inhibitory concentration (IC50) in experiment [1] was 0.63 nM; in experiment [2], 0.06 nM. In addition, the IC90 is 8.7 nM in experiment [1] and 0.21 nM in experiment [2].

B12: H4L13 (antibody, V domains shown)
VH: EVQLVQSGGGVVQPGRSLRLSCAASGFTFSSYGMHWVRQAPGKGLEWVSYISSSGSTIYYADSVKGRFTISRDNAKNSLYLQMNSLRAEDTAVYYCARDLLDYDLLTGYGYWGQGTLVTVSS
VL: not shown
Regarding B12, the values for the IC50 in experiment [1] and in experiment [2] were 0.15 nM and 0.06 nM, respectively. Further, the IC90 came to 1.6 nM in experiment [1] and 0.19 nM in experiment [2].

B13: H3L7 (antibody, V domains shown)
VH: EVQLVQSGGGVVQPGRSLRLSCAASGFTFSSYGMHWVRQAPGKGLEWVSYISSSGSTIQYADSVKGRFTISRDNAKNSLYLQMNSLRAEDTAVYYCARDLLDYDILTGYGYWGQGTLVTVSS
VL: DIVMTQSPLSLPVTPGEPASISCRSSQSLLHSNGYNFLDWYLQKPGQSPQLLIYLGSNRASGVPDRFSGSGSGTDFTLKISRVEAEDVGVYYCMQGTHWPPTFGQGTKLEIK
Take B13: the IC50 is 0.58 nM in experiment [1] and 0.06 nM in experiment [2]. Besides, the IC90 in experiment [1] turned out to be 7.1 nM; in experiment [2] it was 0.23 nM.

B14: H6L6 (antibody, V domains shown)
VH: EVQLVQSGGGVVQPGRSLRLSCAASGFTFSSYGMHWVRQAPGKGLEWVSYISSSGSTIYYADSVKGRFTISRDNAKNSLYLQMNSLRAEDTAVYYCARDLLDYDIYTGYGYWGQGTLVTVSS
VL: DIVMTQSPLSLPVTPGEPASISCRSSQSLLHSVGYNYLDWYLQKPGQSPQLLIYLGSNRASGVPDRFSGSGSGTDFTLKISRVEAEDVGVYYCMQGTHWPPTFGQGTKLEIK
As for B14, the half-maximal inhibitory concentration (IC50) turned out to be 0.66 nM in experiment [1] and 0.06 nM in experiment [2]. The IC90 in experiment [1] is 10 nM; in experiment [2], 0.2 nM.

B15: H11L7 (antibody, V domains shown)
VH: EVQLVQSGGGVVQPGRSLRLSCAASGFTFSSYGMHWVRQAPGKGLEWVSYISSSGSTIYYADSVKGRFTISRDNAKNSLYLQMNSLRAEDTAVYYCARDLLDYDILTGYGMWGQGTLVTVSS
VL: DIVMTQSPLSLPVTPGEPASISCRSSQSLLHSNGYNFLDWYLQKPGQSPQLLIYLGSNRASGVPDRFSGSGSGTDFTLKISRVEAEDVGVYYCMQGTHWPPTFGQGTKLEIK
In experiment [1], B15 registered an IC50 of 0.15 nM and a concentration for an effect of 90% (IC90) of 1.2 nM. In experiment [2], this molecule had a half-inhibitory concentration (IC50) of 0.06 nM and an IC90 of 0.2 nM.

B16: H5L9 (antibody, V domains shown)
VH: EVQLVQSGGGVVQPGRSLRLSCAASGFTFSSYGMHWVRQAPGKGLEWVSYISSSGSTIYYADSVKGRFTISRDNAKNSLYLQMNSLRAEDTAVYYCARDLLDYDIWTGYGYWGQGTLVTVSS
VL: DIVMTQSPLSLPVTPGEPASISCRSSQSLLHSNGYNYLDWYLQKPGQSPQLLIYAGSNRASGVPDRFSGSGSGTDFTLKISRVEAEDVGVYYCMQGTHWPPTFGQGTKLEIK
For the molecule B16, the IC50 in experiment [1] was 18 nM; in experiment [2] it was 0.19 nM. The IC90 in experiment [1] was found to be 181 nM; in experiment [2], 1.57 nM.

B17: H5L4 (antibody, V domains shown)
VH: EVQLVQSGGGVVQPGRSLRLSCAASGFTFSSYGMHWVRQAPGKGLEWVSYISSSGSTIYYADSVKGRFTISRDNAKNSLYLQMNSLRAEDTAVYYCARDLLDYDIWTGYGYWGQGTLVTVSS
VL: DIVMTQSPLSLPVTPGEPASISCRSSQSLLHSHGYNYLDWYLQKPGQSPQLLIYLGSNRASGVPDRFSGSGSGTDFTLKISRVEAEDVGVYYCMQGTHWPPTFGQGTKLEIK
In experiment [1], B17 gave an IC50 of 0.6 nM and a concentration for an effect of 90% (IC90) of 11 nM. In experiment [2], this molecule displayed an IC50 of 0.07 nM and an IC90 of 0.21 nM.

B18: H5L11 (antibody, V domains shown)
VH: EVQLVQSGGGVVQPGRSLRLSCAASGFTFSSYGMHWVRQAPGKGLEWVSYISSSGSTIYYADSVKGRFTISRDNAKNSLYLQMNSLRAEDTAVYYCARDLLDYDIWTGYGYWGQGTLVTVSS
VL: not shown
Regarding B18, in experiment [1], 0.97 nM corresponded to half-maximal inhibition (IC50) and it took 18 nM to reach the 90% level (IC90). Besides, in experiment [2], the IC50 is 0.08 nM and the IC90 came out at 0.25 nM.

B19: H5L1 (antibody, V domains shown)
VH: EVQLVQSGGGVVQPGRSLRLSCAASGFTFSSYGMHWVRQAPGKGLEWVSYISSSGSTIYYADSVKGRFTISRDNAKNSLYLQMNSLRAEDTAVYYCARDLLDYDIWTGYGYWGQGTLVTVSS
VL: not shown
As to B19, the IC50 in experiment [2] was found to be 0.06 nM.

B20: H2L7 (antibody, V domains shown)
VH: EVQLVQSGGGVVQPGRSLRLSCAASGFTFSSYGMHWVRQAPGKGLEWVSYISSSGSTIEYADSVKGRFTISRDNAKNSLYLQMNSLRAEDTAVYYCARDLLDYDILTGYGYWGQGTLVTVSS
VL: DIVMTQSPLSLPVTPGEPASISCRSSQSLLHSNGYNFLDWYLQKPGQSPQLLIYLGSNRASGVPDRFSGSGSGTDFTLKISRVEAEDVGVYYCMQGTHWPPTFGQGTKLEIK
On to B20, for which the 50% inhibitory concentration (IC50) in experiment [1] was 0.33 nM; in experiment [2] it was 0.06 nM. The IC90 in experiment [1] stood at 3.6 nM; in experiment [2] it was 0.2 nM.

B21: H4L6 (antibody, V domains shown)
VH: EVQLVQSGGGVVQPGRSLRLSCAASGFTFSSYGMHWVRQAPGKGLEWVSYISSSGSTIYYADSVKGRFTISRDNAKNSLYLQMNSLRAEDTAVYYCARDLLDYDLLTGYGYWGQGTLVTVSS
VL: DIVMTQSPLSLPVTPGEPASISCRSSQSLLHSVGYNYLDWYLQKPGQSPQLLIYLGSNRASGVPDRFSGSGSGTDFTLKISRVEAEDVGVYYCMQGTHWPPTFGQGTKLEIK
In experiment [1], B21 displayed an IC50 of 0.74 nM and an IC90 of 15 nM. In experiment [2], this molecule gave a half-inhibitory concentration (IC50) of 0.06 nM and a concentration for an effect of 90% (IC90) of 0.2 nM.

B22: H5L8 (antibody, V domains shown)
VH: EVQLVQSGGGVVQPGRSLRLSCAASGFTFSSYGMHWVRQAPGKGLEWVSYISSSGSTIYYADSVKGRFTISRDNAKNSLYLQMNSLRAEDTAVYYCARDLLDYDIWTGYGYWGQGTLVTVSS
VL: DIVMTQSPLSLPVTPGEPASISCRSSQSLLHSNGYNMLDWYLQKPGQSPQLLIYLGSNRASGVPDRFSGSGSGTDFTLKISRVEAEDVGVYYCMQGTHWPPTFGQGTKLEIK
For B22, in experiment [1], the IC50 is 0.37 nM and it took 3.6 nM to reach the 90% level (IC90). Besides, in experiment [2], the IC50 is 0.07 nM and it took 0.21 nM to reach the 90% level (IC90).
